We go through 1 substance from US20250297009A1.

For assay [1], the target named is Human TGF-β1 (Acrobiosystems, TG1-H421) (human) (UniProt P01137). Put plainly: ELISA, human TGF-β1 coated, mouse anti-human Fc-HRP detection. (ELISA stands for enzyme-linked immunosorbent assay.)
Assay [2] addresses Human TGF-β3 (PeproTech, 100-36E) (human) (UniProt P10600). In words: ELISA, human TGF-β3 coated, mouse anti-human Fc-HRP detection.

What is called EC50 (read off the curve) is the midpoint of the concentration-response curve. A lower EC50 (read off the curve) goes with a more potent agent.

Chain of Human TGF-β3 (PeproTech, 100-36E) (human) (P10600 301-412 limits assumed): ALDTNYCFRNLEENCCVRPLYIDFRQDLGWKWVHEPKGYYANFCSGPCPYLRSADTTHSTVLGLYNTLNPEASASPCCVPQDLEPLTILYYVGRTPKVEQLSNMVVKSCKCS
Chain of Human TGF-β1 (Acrobiosystems, TG1-H421) (human) (P01137 279-390 limits assumed): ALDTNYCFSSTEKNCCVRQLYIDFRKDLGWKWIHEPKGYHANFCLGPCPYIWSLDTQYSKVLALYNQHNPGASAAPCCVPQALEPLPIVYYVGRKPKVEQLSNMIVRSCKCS

Take TGF-βRII (Fc fusion): the EC50 (read off the curve) stood at 300 pM in assay [1] and 200 pM in assay [2].
